Measurements as given in US20110118131A1 (published 2011).

These binders were tested against T1, IL-1β (UniProt P01584 117-269) (assay: Biacore, periplasmic extract).
T1 construct: Antigen immobilised on the Biacore chip

Row | Binder | fold difference in affinity vs original | binding result
1 | XPA23 light chain S50T (Fab, V domains shown) VH: EVQLLESGGGLVQPGGSLRLSCAASGFTFSKYFMFWVRQAPGKGLEWVSVISPSGGMTRYADSVKGRFTISRDNSKNTLYLQMNSLRAEDTAVYYCARVGYGGNSDYWGQGTLVTVSS VL: DIQMTQSPSSVSASVGDRLTIICRASQDINRWLAWYQQTPGNAPKLLIHTATSLQSGVPSRFSGSGSGTDFTLTINSLQPEDFATYYCQQADSFPLTFGGGTKVEIK | 0.87 fold | –
2 | XPA23 light chain S50Y (Fab, V domains shown) VH: EVQLLESGGGLVQPGGSLRLSCAASGFTFSKYFMFWVRQAPGKGLEWVSVISPSGGMTRYADSVKGRFTISRDNSKNTLYLQMNSLRAEDTAVYYCARVGYGGNSDYWGQGTLVTVSS VL: DIQMTQSPSSVSASVGDRLTIICRASQDINRWLAWYQQTPGNAPKLLIHYATSLQSGVPSRFSGSGSGTDFTLTINSLQPEDFATYYCQQADSFPLTFGGGTKVEIK | 0.05 fold | –
3 | XPA23 light chain S50W (Fab, V domains shown) VH: EVQLLESGGGLVQPGGSLRLSCAASGFTFSKYFMFWVRQAPGKGLEWVSVISPSGGMTRYADSVKGRFTISRDNSKNTLYLQMNSLRAEDTAVYYCARVGYGGNSDYWGQGTLVTVSS VL: DIQMTQSPSSVSASVGDRLTIICRASQDINRWLAWYQQTPGNAPKLLIHWATSLQSGVPSRFSGSGSGTDFTLTINSLQPEDFATYYCQQADSFPLTFGGGTKVEIK | 0.02 fold | –
4 | XPA23 light chain S50V (Fab, V domains shown) VH: EVQLLESGGGLVQPGGSLRLSCAASGFTFSKYFMFWVRQAPGKGLEWVSVISPSGGMTRYADSVKGRFTISRDNSKNTLYLQMNSLRAEDTAVYYCARVGYGGNSDYWGQGTLVTVSS VL: DIQMTQSPSSVSASVGDRLTIICRASQDINRWLAWYQQTPGNAPKLLIHVATSLQSGVPSRFSGSGSGTDFTLTINSLQPEDFATYYCQQADSFPLTFGGGTKVEIK | 0.21 fold | –

More lines, now with the values ahead:

Row | fold difference in affinity vs original | binding result | Binder
5 | 1.24 fold | – | XPA23 light chain S53F (Fab, V domains shown) VH: EVQLLESGGGLVQPGGSLRLSCAASGFTFSKYFMFWVRQAPGKGLEWVSVISPSGGMTRYADSVKGRFTISRDNSKNTLYLQMNSLRAEDTAVYYCARVGYGGNSDYWGQGTLVTVSS VL: DIQMTQSPSSVSASVGDRLTIICRASQDINRWLAWYQQTPGNAPKLLIHSATFLQSGVPSRFSGSGSGTDFTLTINSLQPEDFATYYCQQADSFPLTFGGGTKVEIK
6 | – | no binding | XPA23 light chain S53D (Fab, V domains shown) VH: EVQLLESGGGLVQPGGSLRLSCAASGFTFSKYFMFWVRQAPGKGLEWVSVISPSGGMTRYADSVKGRFTISRDNSKNTLYLQMNSLRAEDTAVYYCARVGYGGNSDYWGQGTLVTVSS VL: DIQMTQSPSSVSASVGDRLTIICRASQDINRWLAWYQQTPGNAPKLLIHSATDLQSGVPSRFSGSGSGTDFTLTINSLQPEDFATYYCQQADSFPLTFGGGTKVEIK
7 | 4.07 fold | – | XPA23 light chain S53K (Fab, V domains shown) VH: EVQLLESGGGLVQPGGSLRLSCAASGFTFSKYFMFWVRQAPGKGLEWVSVISPSGGMTRYADSVKGRFTISRDNSKNTLYLQMNSLRAEDTAVYYCARVGYGGNSDYWGQGTLVTVSS VL: DIQMTQSPSSVSASVGDRLTIICRASQDINRWLAWYQQTPGNAPKLLIHSATKLQSGVPSRFSGSGSGTDFTLTINSLQPEDFATYYCQQADSFPLTFGGGTKVEIK
8 | 1.13 fold | – | XPA23 light chain S53E (Fab, V domains shown) VH: EVQLLESGGGLVQPGGSLRLSCAASGFTFSKYFMFWVRQAPGKGLEWVSVISPSGGMTRYADSVKGRFTISRDNSKNTLYLQMNSLRAEDTAVYYCARVGYGGNSDYWGQGTLVTVSS VL: DIQMTQSPSSVSASVGDRLTIICRASQDINRWLAWYQQTPGNAPKLLIHSATELQSGVPSRFSGSGSGTDFTLTINSLQPEDFATYYCQQADSFPLTFGGGTKVEIK
